T1: human TREM2 (human, UniProt Q9NZC2 19-174, limits assumed)
T1 construct: also called triggering receptor expressed on myeloid cells 2
T1 sequence: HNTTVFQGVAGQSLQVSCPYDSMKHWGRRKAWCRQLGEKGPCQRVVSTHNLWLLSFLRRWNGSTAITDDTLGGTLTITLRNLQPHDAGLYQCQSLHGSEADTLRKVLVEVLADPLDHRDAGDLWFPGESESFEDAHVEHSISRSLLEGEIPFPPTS


Key:
human TREM2 [1] = target: T1, human TREM2; experiment: 1st screen (110 nM or 10 nM)
human TREM2 [2] = target: T1, human TREM2; experiment: 2nd screen 100 nM

Row | Binding Signal (fold over 6E7 Parental antibody) (human TREM2 [1]) | Binding Signal (fold over 6E7 Parental antibody) (human TREM2 [2]) | Binder
1 | 0.65 fold | 0.52 fold | V44 (antibody, V domains shown) VH: EVQLVQSGAEVKKPGESLKISCKGSGYSFTSYWIAWVRQMPGKGLEWMGIIYPSDSDTRYSPSFQGQVTISADKSISTAYLQWSSLKASDTAMYFCARQRTFYYDSSDYFDYWGQGTLVTVSS VL: DIQMTQSPSSVSASVGDRVTITCRASQGISSWLAWYQQKPGKAPKLLIYAASSLQNGVPSRFSGSGSGTDFTLTISSLQPEDFATYFCQQADSFPRTFGQGTKLEIK
2 | 0.43 fold | 0.53 fold | V45 (antibody, V domains shown) VH: EVQLVQSGAEVKKPGESLKISCKGSGYSFTSYWIAWVRQMPGKGLEWMGIIYPGDSDTRYSPSFQGQVTISADKSISTAYLQWSSLKASDTAMYFCARQRTFYYDSSDYFDYWGQGTLVTVSS VL: DIQMTQSPSSVSASVGDRVTITCRASQGISSFLAWYQQKPGKAPKLLIYAASSLQNGVPSRFSGSGSGTDFTLTISSLQPEDFATYFCQQADSFPRTFGQGTKLEIK
3 | 0.83 fold | 0.96 fold | V46 (antibody, V domains shown) VH: EVQLVQSGAEVKKPGESLKISCKGSGYSFTSYWIAWVRQMPGKGLEWMGIIYPGDSDTRYSPSFQGQVTISADKSISTAYLQWSSLKASDTAMYFCARQRTFYYDSSDYFDYWGQGTLVTVSS VL: DIQMTQSPSSVSASVGDRVTITCRASQGISSWLAWYQQKPGKAPKLLIYAASTLQNGVPSRFSGSGSGTDFTLTISSLQPEDFATYFCQQADSFPRTFGQGTKLEIK
4 | 0.42 fold | 0.47 fold | V47 (antibody, V domains shown) VH: EVQLVQSGAEVKKPGESLKISCKGSGYSFTSYWIAWVRQMPGKGLEWMGIIYPGDSDTRYSPSFQGQVTISADKSISTAYLQWSSLKASDTAMYFCARQRTFYYDSSDYFDYWGQGTLVTVSS VL: DIQMTQSPSSVSASVGDRVTITCRASQGISSWLAWYQQKPGKAPKLLIYAASSLQNGVPSRFSGSGSGTDFTLTISSLQPEDFATYFCQQADSFPMTFGQGTKLEIK
5 | 0.55 fold | 0.54 fold | V54 (antibody, V domains shown) VH: EVQLVQSGAEVKKPGESLKISCKGSGYSFTSQWIAWVRQMPGKGLEWMGIIYPGDSDTRYSPSFQGQVTISADKSISTAYLQWSSLKASDTAMYFCARQRTFYYDSSDYFDYWGQGTLVTVSS VL: DIQMTQSPSSVSASVGDRVTITCRASQGISSWLAWYQQKPGKAPKLLIYAASSLQNGVPSRFSGSGSGTDFTLTISSLQPEDFATYFCQQADSFPRTFGQGTKLEIK
6 | 0.24 fold | 0.66 fold | V55 (antibody, V domains shown) VH: EVQLVQSGAEVKKPGESLKISCKGSGYSFTSYWIAWVRQMPGKGLEWMGIIYPGDSDTIYSPSHQGQVTISADKSISTAYLQWSSLKASDTAMYFCARQRTFYYDSSDYFDYWGQGTLVTVSS VL: DIQMTQSPSSVSASVGDRVTITCRASQGISSWLAWYQQKPGKAPKLLIYAASSLQNGVPSRFSGSGSGTDFTLTISSLQPEDFATYFCQQADSFPRTFGQGTKLEIK
7 | 0.23 fold | 0.59 fold | V56 (antibody, V domains shown) VH: EVQLVQSGAEVKKPGESLKISCKGSGYSFTSYWIAWVRQMPGKGLEWMGIIYPGDSDTRYQPSFQGQVTISADKSISTAYLQWSSLKASDTAMYFCARQRTFYYDSSDYFDYWGQGTLVTVSS VL: DIQMTQSPSSVSASVGDRVTITCRASQGISSWLAWYQQKPGKAPKLLIYAASSLQNGVPSRFSGSGSGTDFTLTISSLQPEDFATYFCQQADSFPRTFGQGTKLEIK
8 | 0.84 fold | 0.85 fold | V57 (antibody, V domains shown) VH: EVQLVQSGAEVKKPGESLKISCKGSGYSFTSYWIAWVRQMPGKGLEWMGIIYPGDSDTRYSPSFQGQVTISADKSISTAYLQWSSLKASDTAMYFCARQRTFYYDSSDYFDYWGQGTLVTVSS VL: DIQMTQSPSSVSASVGDRVTITCAASQGISSWLAWYQQKPGKAPKLLIYAASSLQNGVPSRFSGSGSGTDFTLTISSLQPEDFATYFCQQADSFPRTFGQGTKLEIK
9 | 0.28 fold | 0.68 fold | V58 (antibody, V domains shown) VH: EVQLVQSGAEVKKPGESLKISCKGSGYSFTSYWIAWVRQMPGKGLEWMGIIYPGDSDTRYSPSFQGQVTISADKSISTAYLQWSSLKASDTAMYFCARQRTFYYDSSDYFDYWGQGTLVTVSS VL: DIQMTQSPSSVSASVGDRVTITCRASQGISSWLAWYQQKPGKAPKLLIYKASSLQNGVPSRFSGSGSGTDFTLTISSLQPEDFATYFCQQADSFPRTFGQGTKLEIK
10 | 0.19 fold | 0.6 fold | V59 (antibody, V domains shown) VH: EVQLVQSGAEVKKPGESLKISCKGSGYSFTSYWIAWVRQMPGKGLEWMGIIYPGDSDTRYSPSFQGQVTISADKSISTAYLQWSSLKASDTAMYFCARQRTFYYDSSDYFDYWGQGTLVTVSS VL: DIQMTQSPSSVSASVGDRVTITCRASQGISSWLAWYQQKPGKAPKLLIYAASSLQNGVPSRFSGSGSGTDFTLTISSLQPEDFATYFCMQADSFPRTFGQGTKLEIK
11 | 0.25 fold | 0.74 fold | V66 (antibody, V domains shown) VH: EVQLVQSGAEVKKPGESLKISCKGSGTSFTSYWIAWVRQMPGKGLEWMGIIYPGDSDTRYSPSFQGQVTISADKSISTAYLQWSSLKASDTAMYFCARQRTFYYDSSDYFDYWGQGTLVTVSS VL: DIQMTQSPSSVSASVGDRVTITCRASQGISSWLAWYQQKPGKAPKLLIYAASSLQNGVPSRFSGSGSGTDFTLTISSLQPEDFATYFCQQADSFPRTFGQGTKLEIK
12 | 0.8 fold | 0.84 fold | V67 (antibody, V domains shown) VH: EVQLVQSGAEVKKPGESLKISCKGSGYSFTSYWIAWVRQMPGKGLEWMGMIYPGDSDTRYSPSFQGQVTISADKSISTAYLQWSSLKASDTAMYFCARQRTFYYDSSDYFDYWGQGTLVTVSS VL: DIQMTQSPSSVSASVGDRVTITCRASQGISSWLAWYQQKPGKAPKLLIYAASSLQNGVPSRFSGSGSGTDFTLTISSLQPEDFATYFCQQADSFPRTFGQGTKLEIK
13 | 0.44 fold | 0.43 fold | V68 (antibody, V domains shown) VH: EVQLVQSGAEVKKPGESLKISCKGSGYSFTSYWIAWVRQMPGKGLEWMGIIYPGDSDTRYSPSFQGQVTISADKSISTAYLQWSSLKASDTAMYFCARQRTFRYDSSDYFDYWGQGTLVTVSS VL: DIQMTQSPSSVSASVGDRVTITCRASQGISSWLAWYQQKPGKAPKLLIYAASSLQNGVPSRFSGSGSGTDFTLTISSLQPEDFATYFCQQADSFPRTFGQGTKLEIK
14 | 0.41 fold | 0.4 fold | V69 (antibody, V domains shown) VH: EVQLVQSGAEVKKPGESLKISCKGSGYSFTSYWIAWVRQMPGKGLEWMGIIYPGDSDTRYSPSFQGQVTISADKSISTAYLQWSSLKASDTAMYFCARQRTFYYDSSDYFDYWGQGTLVTVSS VL: DIQMTQSPSSVSASVGDRVTITCRASQGISSYLAWYQQKPGKAPKLLIYAASSLQNGVPSRFSGSGSGTDFTLTISSLQPEDFATYFCQQADSFPRTFGQGTKLEIK
15 | 0.79 fold | 0.84 fold | V70 (antibody, V domains shown) VH: EVQLVQSGAEVKKPGESLKISCKGSGYSFTSYWIAWVRQMPGKGLEWMGIIYPGDSDTRYSPSFQGQVTISADKSISTAYLQWSSLKASDTAMYFCARQRTFYYDSSDYFDYWGQGTLVTVSS VL: DIQMTQSPSSVSASVGDRVTITCRASQGISSWLAWYQQKPGKAPKLLIYAAGSLQNGVPSRFSGSGSGTDFTLTISSLQPEDFATYFCQQADSFPRTFGQGTKLEIK
16 | 0.37 fold | 0.48 fold | V71 (antibody, V domains shown) VH: EVQLVQSGAEVKKPGESLKISCKGSGYSFTSYWIAWVRQMPGKGLEWMGIIYPGDSDTRYSPSFQGQVTISADKSISTAYLQWSSLKASDTAMYFCARQRTFYYDSSDYFDYWGQGTLVTVSS VL: DIQMTQSPSSVSASVGDRVTITCRASQGISSWLAWYQQKPGKAPKLLIYAASSLQNGVPSRFSGSGSGTDFTLTISSLQPEDFATYFCQQADSEPRTFGQGTKLEIK
17 | 0.86 fold | 1.11 fold | V78 (antibody, V domains shown) VH: EVQLVQSGAEVKKPGESLKISCKGSGYRFTSYWIAWVRQMPGKGLEWMGIIYPGDSDTRYSPSFQGQVTISADKSISTAYLQWSSLKASDTAMYFCARQRTFYYDSSDYFDYWGQGTLVTVSS VL: DIQMTQSPSSVSASVGDRVTITCRASQGISSWLAWYQQKPGKAPKLLIYAASSLQNGVPSRFSGSGSGTDFTLTISSLQPEDFATYFCQQADSFPRTFGQGTKLEIK
18 | 0.7 fold | 0.52 fold | V79 (antibody, V domains shown) VH: EVQLVQSGAEVKKPGESLKISCKGSGYSFTSYWIAWVRQMPGKGLEWMGIIYPGDSDTNYSPSFQGQVTISADKSISTAYLQWSSLKASDTAMYFCARQRTFYYDSSDYFDYWGQGTLVTVSS VL: DIQMTQSPSSVSASVGDRVTITCRASQGISSWLAWYQQKPGKAPKLLIYAASSLQNGVPSRFSGSGSGTDFTLTISSLQPEDFATYFCQQADSFPRTFGQGTKLEIK
19 | 0.59 fold | 0.5 fold | V80 (antibody, V domains shown) VH: EVQLVQSGAEVKKPGESLKISCKGSGYSFTSYWIAWVRQMPGKGLEWMGIIYPGDSDTRYSPSFQGQVTISADKSISTAYLQWSSLKASDTAMYFCARQRNFYYDSSDYFDYWGQGTLVTVSS VL: DIQMTQSPSSVSASVGDRVTITCRASQGISSWLAWYQQKPGKAPKLLIYAASSLQNGVPSRFSGSGSGTDFTLTISSLQPEDFATYFCQQADSFPRTFGQGTKLEIK

From patent US20250282866A1 (VIGIL NEUROSCIENCE, published 2025)
